Data taken from the supplement of paper PMC7877785.
± gives the uncertainty stated by the source.

Experiment: self-splicing fitness, log relative to wild type (ln ratio); higher = more splicing; Tetrahymena group I intron in knt gene, E. coli kanamycin selection, DiMSum; sequences stand for … in CUCUCU…GGAGGGAAAAGUUAUCAGGCAUGCACCUGGUAGCUAGUCUUUAAACCAAUAGAUUGCAUCGGUUUAAAAGGCAAGACCGUCAAAUUGCGGGAAAGGGGUCAACAGCCGUUCAGUACCAAGUCUCAGGGGAAACUUUGAGAUGGCCUUGCAAAGGGUAUGGUAAUAAGCUGACGGACAUGGUCCUAACCACGCAGCCAAGUCCUAAGUCAACAGAUCUUCUGUUGAUAUGGAUGCAGUUCACAGACUAAAUGUCGGUCGGGGAAGAUGUAUUCUUCUCAUAAGAUAUAGUCGGACCUCUCCUUAAUGGGAGCUAGCGGAUGAAGUGAUGCAACACUGGAGCCGCUGGGAACUAAUUUGUAUGCGAAAGUAUAUUGAUUAGUUUUGGAGUACUCGUGGUCG
Method in brief: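 Pooled colonies went to amplicon sequencing on an Illumina HiSeq 2500 after six replicate transformations. The plates were LB agar with 100 μg/mL carbenicillin, 50 μM IPTG and 0.2% rhamnose, with or without 25 μg/mL kanamycin, incubated overnight at 37°C or 30°C. The E. coli BL21(DE3) library had all eight P1ex-region intron nucleotides randomised, the intron placed in the knt kanamycin-resistance gene on pET-22b(+). DiMSum fitness is the error-weighted combination of replicate fold changes, kanamycin against none, normalised to wild type.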

| Sequence | self-splicing fitness (ln) (30 °C) | self-splicing fitness (ln) (37 °C) |
| --- | --- | --- |
| AAUAAGCAAUAUUACGUGCG | -1.1 ± 0.065 | -0.488 ± 0.083 |
| AAUAAGCAAUAUUACGUGUU | -3.01 ± 0.097 | -2.58 ± 0.13 |
| AAUCAGCAAUAUUACGACAG | -1.31 ± 0.083 | -0.761 ± 0.1 |
| AAUCAGCAAUAUUACGACGA | -0.461 ± 0.082 | 0.386 ± 0.1 |
| AAUCAGCAAUAUUACGAGAA | -1.61 ± 0.26 | -1.61 ± 0.2 |
| AAUCAGCAAUAUUACGAUCC | 0.138 ± 0.13 | -0.291 ± 0.17 |
| AAUCAGCAAUAUUACGAUGA | 0.103 ± 0.059 | 0.0645 ± 0.083 |
| AAUCAGCAAUAUUACGCCAU | -2.35 ± 0.19 | -1.76 ± 0.14 |
| AAUCAGCAAUAUUACGCCGA | -1.17 ± 0.09 | -0.332 ± 0.11 |
| AAUCAGCAAUAUUACGCGUU | -0.956 ± 0.057 | -0.765 ± 0.076 |
| AAUCAGCAAUAUUACGGAAA | -1.19 ± 0.099 | 0.0734 ± 0.12 |
| AAUCAGCAAUAUUACGGAUU | -2.89 ± 0.15 | -2.74 ± 0.16 |
| AAUCAGCAAUAUUACGGCGU | 0.47 ± 0.068 | 0.7 ± 0.076 |
| AAUCAGCAAUAUUACGGGGA | -1.82 ± 0.1 | -0.723 ± 0.1 |
| AAUCAGCAAUAUUACGGGGG | -1.11 ± 0.1 | -1.66 ± 0.13 |
| AAUCAGCAAUAUUACGGUAA | 0.0235 ± 0.065 | 0.0455 ± 0.063 |
| AAUCAGCAAUAUUACGGUAG | -1.83 ± 0.092 | -0.774 ± 0.097 |
| AAUCAGCAAUAUUACGUCAU | 0.166 ± 0.064 | 0.337 ± 0.077 |
| AAUCAGCAAUAUUACGUCCU | 0.497 ± 0.09 | 0.632 ± 0.11 |
| AAUCAGCAAUAUUACGUUCC | -2.26 ± 0.24 | -0.62 ± 0.22 |
| AAUGAGCAAUAUUACGAUAG | -3.68 ± 0.27 | -2.04 ± 0.34 |
| AAUGAGCAAUAUUACGAUAU | -3.25 ± 0.25 | -0.861 ± 0.22 |
| AAUGAGCAAUAUUACGCACG | -3.21 ± 0.36 |  |
| AAUGAGCAAUAUUACGCUAC | -3.12 ± 0.27 | -2.84 ± 0.34 |

| Sequence | self-splicing fitness (ln) (30 °C) | self-splicing fitness (ln) (37 °C) |
| --- | --- | --- |
| AAUGAGCAAUAUUACGGAAG | -3.49 ± 0.3 | -2.63 ± 0.23 |
| AAUGAGCAAUAUUACGGACU | -1.59 ± 0.13 | -2.04 ± 0.19 |
| AAUGAGCAAUAUUACGGAGA | -2.59 ± 0.4 | -2.51 ± 0.34 |
| AAUGAGCAAUAUUACGGAGG | -2.69 ± 0.33 | -2.45 ± 0.38 |
| AAUGAGCAAUAUUACGGCUA | -2.14 ± 0.24 | -0.372 ± 0.16 |
| AAUGAGCAAUAUUACGGCUG | -1.52 ± 0.096 | -1.47 ± 0.16 |
| AAUGAGCAAUAUUACGGGCA | -3.76 ± 0.42 | -1.24 ± 0.29 |
| AAUGAGCAAUAUUACGGGGU | -2.97 ± 0.18 | -2.29 ± 0.21 |
| AAUGAGCAAUAUUACGUAGA | -2.46 ± 0.24 | -2.56 ± 0.27 |
| AAUGAGCAAUAUUACGUAGG | -3.19 ± 0.15 | -2.6 ± 0.24 |
| AAUGAGCAAUAUUACGUCGA | -3.56 ± 0.21 | -2.84 ± 0.23 |
| AAUGAGCAAUAUUACGUUUG | -4.24 ± 0.2 | -2.33 ± 0.19 |
| AAUUAGCAAUAUUACGAACG | -0.548 ± 0.13 | -0.153 ± 0.19 |
| AAUUAGCAAUAUUACGACAU | -0.0913 ± 0.013 | -0.0165 ± 0.033 |
| AAUUAGCAAUAUUACGACUG | -1.11 ± 0.1 | -0.677 ± 0.11 |
| AAUUAGCAAUAUUACGAGAC |  | -2.39 ± 0.39 |
| AAUUAGCAAUAUUACGAUUA | -0.375 ± 0.15 | -0.559 ± 0.15 |
| AAUUAGCAAUAUUACGCAUG | -1.7 ± 0.15 | 0.109 ± 0.2 |
| AAUUAGCAAUAUUACGCAUU | -2.52 ± 0.17 | -2.69 ± 0.21 |
| AAUUAGCAAUAUUACGCCGC | -2.94 ± 0.36 | -1.66 ± 0.24 |
| AAUUAGCAAUAUUACGCGAG | -1.84 ± 0.12 | -0.918 ± 0.12 |
| AAUUAGCAAUAUUACGCGGA | -1.56 ± 0.16 | -1.3 ± 0.12 |
| AAUUAGCAAUAUUACGCGGG | -2.73 ± 0.15 | -0.941 ± 0.14 |
| AAUUAGCAAUAUUACGGAUC | -0.415 ± 0.11 | 0.186 ± 0.12 |
